From the DeepSol protein solubility set

assay: soluble on expression in E. coli; label from the status in PepcDB or PDB records

**Q.** Which “soluble on expression in E. coli” value does the source give for “MSLKDPLSEALVRLNQKVDSELIPEIKRFPLIGISTDISPKRTAVNTAYVQSVILSGGIPYMIPVTDNVEILRQIVSRLDGIVFTGGEDIQPMYYGDLPYEKLEEVSPARDTFDLMVLKMAADRNIPILGICRGLQLMNVAFGGTLYQDLPTQHPSSVNHRQKESGTTTTHPISIIKGSKLADITGQEVLQVNTFHHQAIQKLAPGFKITAWAPDSIAEAIEAYPIRQMIGVQFHPEIFTAAGDTTMHKLFKFLVNKADEGHHHHHH” here?
**A.** Its value is “not soluble”.

**Q.** With “MSLKEELLEAIYGTVERLEQKVDELSASPKNTEAESTPVSVSVDTSKLEKAILAMAVKEGEAIDKLVRLREAICIFTDLTKKEASKDEQRSKLLFDTINQVKQELNATSKNVQDKLHAMDNAPLKKVVTHRFEPTSKYVLLFIGGLALSLVISIWGNLAQWREYQAWEVADLKYRALKMVLPSDDPNVRYIEKHFSVCRDEKVIDDVRNCVAAYEDSIRHHHEMVEMATYKDSIANKLLQESNRIIRAMKSSKEGHHHHHH” as the sequence, how does the “soluble on expression in E. coli” value read?
**A.** The value was “not soluble”.

**Q.** For “MSLKEESLLEYYAQDSFYAEYSSGTGYEIQERALRSTFSRYMKELHKRNVTGGKLLEIGCGFGFLLDEAKNYFDYRIGTDFSSEAVSHAKKYADNVYCGGLEAIPSDTSTKFDCVITFSVLEHVYNPNTFIQEIQNYMAPNGSLVVSTPFIGGMWYKILGKKWSFFIPPEHVCLYNHNSISQLLKQNGFKNIEMFISSHAWPVAGFLSKMGMRKLSSMTLKLKIGDVPLFVPFTIINIIGSKEGHHHHHH”, which “soluble on expression in E. coli” value is on record?
**A.** The value was “not soluble”.

**Q.** Which “soluble on expression in E. coli” value does the source give for “MSLKENKYDDKHFFEQYSQMPRSKEGLKAAGEWHELKKMLPDFNQKTVLDLGCGFGWHCIYAAEHGAKKVLGIDLSERMLTEAKRKTTSPVVCYEQKAIEDIAIEPDAYNVVLSSLALHYIASFDDICKKVYINLKSSGSFIFSVEHPVFTADGRQDWYTDETGNKLHWPVDRYFNESMRTSHFLGEDVQKYHRTVTTYIQTLLKNGFQINSVIEPEPAPELKDLPEMQDEYRRPMMLLISATKQEGHHHHHH” here?
**A.** Its value is “soluble”.

**Q.** Which “soluble on expression in E. coli” value does the source give for “MSLKENNMDKAHIGFIGLGLMGAAMVECLQKAGHAVTVLGNRDRTGVEAALARGATEAAHARAVAEASDIVMLCMGTSAQVESRIYGDDGVLAGTREGQVVIDFGTSLPASTRRIGGDLAGKGATYLDAPLGRTPAHARDGLLNIMCSGDKATFDRVKPVLHTLGENVFHLGALGNGHTIKLINNCYSMTTACAMAEAFAIADATGIERQALYNVMAAGPNHSGMMDFINAYANGGRIDLAFTVANAAKDVGYYRQMATEMGLFSRMSIAADATLREARDGGDGGLMVPQMIDWMVRHLGEEGHHHHHH” here?
**A.** Its value is “soluble”.

**Q.** Which “soluble on expression in E. coli” value does the source give for “MSLKFIEEVVVEEFLPTFRSLLAADLRERGLTQHEVAELLGVSQSAVSKYAHGDVTTDDEIAADDRVQELVERTGSGLATGNVSQVQALVEAEVLVRELSTSSDILAERHEAANPALADYDGDFTVHDADSEVRVREHVLSSVRRGVRMLERTSGFATQIPAVGANLVECTPEADTVEDVAGVPGRVLDVMGRTEIPAEPEFGVSAYVATVLLDARAAGVDAHAALNIAYSADTVAALADAGYAVVEFEPEGESTTDDHHIRDAVRDADAVDVLYQTGGYGVEPIVYVLAENAPDAVRMARGLEGHHHHHH” here?
**A.** Its value is “soluble”.

**Q.** Which “soluble on expression in E. coli” value does the source give for “MSLKGSEVITKFSKVDTIMFDKTGTLTYGDPRVSQVKKYGQGQLAEQLLVSVEKESAHPLAKAITGYYEDLEAEEVEASRVLQGGGIVAQVAGQQVLVGNRYLLDQYHVLVTKEMERDMEELASAGNSLVLVAVNGQLELALGLKDEIRAGVKEDLAALKKQGVKNLLLLSGDNQKTVDLVAEELGPTEAYGQLLPEDKAEFVKKRQAAGEIVAFVGDGINDSPSLARADIGIAMGSGTDVAIETSNVVLMNGSFDRIPRALALAKATRRNMIENEGHHHHHH” here?
**A.** Its value is “soluble”.

**Q.** Which “soluble on expression in E. coli” value does the source give for “MSLKGTYVLLLKLEESVALRYGKKASHLEPGYYAYVGSAMGGFFKRIPRYFLGSRKRHWHIDYLLDHAQIAGLIMFSGKRIEEEISNVLSYHFEGIEDFGASDLRVKTNLYHVDPDKLFSLLGGFRENRDIRRAQKHRGKQNQSGEGHHHHHH” here?
**A.** Its value is “soluble”.

**Q.** Which “soluble on expression in E. coli” value does the source give for “MSLKHLWFEKGAYASKAARQYLNDHFNPLAVKKTAVIRHAALGDQVIVRPFLVEARKFFPNAEITLVTVSNYLYGTPSDLADKTVIMKSRDDSKQLSLRQKWQDYNQLEAQDIIFDVAGTNRSYWMTLLTKAKLKVGFPYKPFLCGTLYNLAVFRSDFQPEVECMLDMLKILGHNPSYPLDFAYPDNRQICDHAAPYIVYFSGASQLRKILTKPEMRAVIEQTIQQQPNVKHVFLEGKNEFEKGEYLQDLADNGSLTIQPCLPLDDLVTFIAKATLVIAPDTGIRNVAISTHTPTVGIFYATVPFRYTPLYEAHTIVMNANGEKPSTEQITSAIDTTLKMRLAAAKNTQEQEGHHHHHH” here?
**A.** Its value is “soluble”.

**Q.** Which “soluble on expression in E. coli” value does the source give for “MSLKHQFSRNELAYGQEGLDLLKEKTVAVLGVGGVGSFAAEALARTNIGHIILIDKDDVDITNVNRQIHALTTTIGQSKVTLMEERIKLINPDCKVTPLHMFYTEETYEDLFNNYDIDYFIDASDTIIYKVHLMKECLERGIKMISSMGAANKTDPTRFKIADISKTYMDPMAKIIRNKLKRQGIKKGVPVVFSDESPIVIREDVKATVGDANAINRKGQMPPSSNAFVPSTVGLICASYVVNDILKNIPVRRIKDKGNEGHHHHHH” here?
**A.** Its value is “soluble”.

**Q.** With “MSLKIAIVGCGAMGSVYAGLLASAGNSLWIVDRWKAHVEAINSRGLRLEGPQRDLTAFAHASTTAPDEPMDLVIIAVKASDVETGAQQTLSMIGPETIVLTIQNGLGSADAVAQVVGVDRLAVGIASGFGASLKGPGHAHHNAMQALRFGAYSSLPYERVVAVARVWESAGFDAKAIRDIAVMQWEKLICNVAYSAPCALTGMTVGEVMNDPCMGPVSQAAATEAWSVARALGIQIDVDDPVAHVRAFGARMPAAKPSALLDHEAGRISEIDVINGAVPTQGNKLGIATPVNSTLTQLVRVKERQFREGHHHHHH” as the sequence, how does the “soluble on expression in E. coli” value read?
**A.** The value was “soluble”.

**Q.** For “MSLKIAQATARVEAFALVRPYTIALRHVGTVENVIVQLQTASGLIGLGAASAAADVTGESDQACREALLGGAIGWLVGEDIRELPKLCRRLGERMAGRPAARAAVDIALHDLLAQHLGVPLVAMLGRVHTGLPTSITIGIKPLDETLAEAREYLGRGFRILKVKTGLDLEGDIERLARLREQVGDAVHLRVDPNQGYSIAEVEQFVRRTAHLFLEFLEQPIPAGDIAALRALPPDIRLRIAADESLLDERDALKLLTPSPACGIFNIKLMKCGGIRPALAIAGLAEIAGIELMWGCMDESIVSITAALHAALACPATRYLDLDGSLDLARDVVTGGFVLKDGYLSTREAPGLGVQLLSEGHHHHHH”, which “soluble on expression in E. coli” value is on record?
**A.** Its value is “not soluble”.

**Q.** With “MSLKILDCTLRDGGYYTNWDFNSKIVDAYILAMNELPIDYLEVGYRNKPSKEYMGKFGYTPVSVLKHLRNISTKKIAIMLNEKNTTPEDLNHLLLPIIGLVDMIRIAIDPQNIDRAIVLAKAIKTMGFEVGFNVMYMSKWAEMNGFLSKLKAIDKIADLFCMVDSFGGITPKEVKNLLKEVRKYTHVPVGFHGHDNLQLGLINSITAIDDGIDFIDATITGMGRGAGNLKMELLLTYLNKHHGLNVDFNVLGNIITTFTPLLEKYQWGTNLPYMLSGANNIPQKEVMDWVTNRVYSFNSIIRALDNRKNKMEDNAKYPLLNIKNKFDRVVIIGGGFNAIEHKEAIKSFIETHTNTAIIFATARYAREYLDVNAPHFYCLVGNEGHRLTHNINPQNLSGICVLPPYPRPMGTEVPEYAKNVTFELENITFIDQYKDSVTTIALQLAILLTDQDIYLVGYDGYPGNVLSEKEMALTNENRTIFATYTTISGKILKSLTPSIYKEIEVVSVYQFEGHHHHHH” as the sequence, how does the “soluble on expression in E. coli” value read?
**A.** The value was “soluble”.

**Q.** Which “soluble on expression in E. coli” value does the source give for “MSLKILYISQEIFPYLPETDISVVSRKLPQTIQERGNEVRIFMPRYGIINERRNQLHEVIRLSGINMIINDNDHPLIIKVASIQSARMQVYFIDNDDFFKRKTMYDIKPKQENDNDERAIFFVRGALEAIKKLRWIPDVIHCHGWFTALAALYLKKMYADDPCLQKAKVVYSVYDDAGQGVIPETLFGKLGFDKITPDDLSVMEQSSDYLALNRLAIRYADGVIQGSETIAPELTDYISSLEGKAFLPYQGKEDYEEAFDNFYSDLLTANEGHHHHHH” here?
**A.** The value was “soluble”.

**Q.** With “MSLKISDVVVELFREAAIYLPEDVKNALEEAYKKESSEISKNTLKAIIENNKIAEETQVPLCQDTGVPIVFLKIGKNINSSEIMKIIEEIKEGVKKATEEVPLRPNVVHPLTRENFKTNVGLNSPFINIEFDESLDREIEIIAFPKGAGSENMSALKMLKPSDGIEGIKNFVLETIANAGGKPCPPIVVGIGIGGTADVALKLAKKALLRKIGERHRDKEIANLEKELLEKINSLGIGAMGLGGDITALDVFIEIAGCHTASLPVGICIQCWADRRAIKRIKLDAKEGGSHHHHHH” as the sequence, how does the “soluble on expression in E. coli” value read?
**A.** Its value is “soluble”.

**Q.** Which “soluble on expression in E. coli” value does the source give for “MSLKITAVKCILLSCPYAIPGDLEREFCFADGHRTISVIKVETDEGIHGLGETYIGVFAPEATQAIVRQLEVDLVGRDPMDTAGIANILKLATYYWGRFGMSASIAGGIEMALWDLKGKALGVPVHQLLGGKVHDHIPAYASGGNNKPFPELKKELLGYKKLGFGAVKIRINYLEPHEIIEKVAYSREVLGDKTGLGVDACQGVNPKAWNYKEAIGIVRSLEPYKLLFVEEPCEVTDYKGFAKIRAETDCVIAGGETVSSLVEAENYLEAGALDLFQPDAAIIGGISAFRRVAQMCERKFIKLAVHTWAGGVGIMGNYHAAFASPNCTLLELPNNPFPLREEFLVQPLTLVNGGIAAPTAPGLGVEGHHHHHH” here?
**A.** Its value is “soluble”.

**Q.** With “MSLKKDYGSQEDFTQVWNTTMKGLKCCGFTNYTDFEDSPYFKENSAFPPFCCNDNVTNTANETCTKQKAHDQKVEGCFNQLLYDIRTNAVTVGEGHHHHHH” as the sequence, how does the “soluble on expression in E. coli” value read?
**A.** The value was “soluble”.

**Q.** For “MSLKKMMDSTTVIITTTDNRVLLQKRDENPDIEYSGYYSLVSGYLEEEETPLDGIIRELKEEFEHKKSQKVHFSSITYLGSEYRADYDRWEYIHHTYLMDDAADIRILEGESFVLLDMDECLRLENLAPHHKLFLLKYRAGLCKIDVREQSKKMFDEITVRDLIKVESVGDVKNYSLLEAGTGFVIGEDTTLSASIPAVEAAKYIGFLQFVPKVLRGNHYHFRKVEYMLILQGRMHATFQKYDDSEAVIEEIWEKGDLVRTLPGCVHTLTALGESNVLTIEFSPQPYVARDVLMNDKEGHHHHHH”, which “soluble on expression in E. coli” value is on record?
**A.** Its value is “soluble”.

**Q.** For “MSLKKPALKYCGIRSLKDLQLAAESQADYLGFIFAESKRKVSPEDVKKWLNQVRVEKQVAGVFVNESIETMSRIAKSLKLDVIQLHGDEKPADVAALRKLTGCEIWKALHHQDNTTQEIARFKDNVDGFVIDSSVKGSRGGTGVAFSWDCVPEYQQAAIGKRCFIAGGVNPDSITRLLKWQPEGIDLASGIEKNGQKDQNLMRLLEERMNRYVSISEEGHHHHHH”, which “soluble on expression in E. coli” value is on record?
**A.** Its value is “soluble”.

**Q.** With “MSLKKYQLVIVGYGGMGSYHVTLASAADNLEVHGVFDILAEKREAAAQKGLKIYESYEAVLADEKVDAVLIATPNDSHKELAISALEAGKHVVCEKPVTMTSEDLLAIMDVAKRVNKHFMVHQNRRWDEDFLIIKEMFEQKTIGEMFHLESRVHGANGIPGDWRHLKAHGGGMVLDWGVHLLDQLLFLVDSNVKSVSANLSFALGDEVDDGFVTFITFENGITAQIEVGTTNFIKLPRWYVKGTEGTGIIHDWDLSGEIVKPTALAKTSEPTPIKAGQGLTKTMAPPSEEATNTLSLPAPAKLAPSFYNNFVDVLNNTSEPIVQNEEVYQVLKLIEAIFEAAETNRTVHSIEGHHHHHH” as the sequence, how does the “soluble on expression in E. coli” value read?
**A.** Its value is “soluble”.

**Q.** With “MSLKLGIIGSGKIVHDFLTAIDQINNLDVVAISSTKRSENIAQELAKKYSINKTYTDNDELMSDPDVDTVYVAVPNFLHYQVAKAALEHGKNVICEKPFVDSTNEAKKLKQLADEKNLIIVEAITNIYLENFKRIQREIENIAPIHIVSLNYTQYSSRYDDFLKGKIAPVFDPAKDGGTLMDLNIYNIHLVSALFGLPDKVKYYANMQKGVDTSGILHLSYPDKQAALIAAKDSYVTPRSFIEGEKGSIYIDGSTGELNNFTIEMRDQKPKRYNLNKYSHRMASEFNAFVEMIDNHDKVKADEAFVNTLESMQILTTAKNSEEGHHHHHH” as the sequence, how does the “soluble on expression in E. coli” value read?
**A.** The value was “soluble”.
